The source of these data is patent publication US20230331848A1 (BIOSION, published 2023).

For test [1], the target named is T1, in house made human PD-1-Fc protein (human, biotin-labeled (sites not given)).
T1 construct: also called biotin-labeled human PD-1-Fc
In words: blocking FACS: biotin human PD-1-Fc + antibody on GS-C2/PD-L1 cells (competitor: cell-surface human PD-L1).

Test [2] has as its target T2, human PD-1-his protein prepared in-house (human, UniProt Q15116 25-167, biotin-labeled (sites not given)).
T2 construct: also called biotin labeled human PD-1-his
In words: capture ELISA, antibody captured, biotin human PD-1-his detected. How it is done: Briefly, 96-well micro plates were coated with 100 μl 2 μg/ml AffiniPure Goat Anti-Mouse IgG F(ab′)₂ fragment specific (Cat#:115-005-072, Jackson lmmunoResearch) or Goat-anti-human IgG (Cat#:109-005-097, Jackson ImmunoResearch, for the positive control and negative control) in PBS overnight at 4° C. Plates were washed once with wash buffer (PBST, PBS+0.05% Tween-20) and then blocked with 200 μl/well blocking buffer (5% w/v non-fatty milk in PBST) for 2 hours at 37° C. […] After a final wash, plates were incubated with 100 μl/well TMB (Cat#:TMB-S-002, Innoreagents) at room temperature.
For the capture ELISA, 96-well plates were coated with 100 μl 2 μg/ml AffiniPure Goat Anti-Human IgG, Fcγ fragment specific (Cat#:109-005-098, Jackson Immunoresearch) instead of AffiniPure goat-anti-mouse IgG F(ab′)₂ fragment specific.
(ELISA stands for enzyme-linked immunosorbent assay.)

The target of test [3] is T2, human PD-1-his protein prepared in-house. Description: competitive ELISA: biotin human PD-1-his + antibody on coated Pembrolizumab (competitor). The procedure: ELISA plates were washed once with wash buffer (PBST, PBS+0.05% Tween-20) and then blocked with 200 μl/well blocking buffer (5% w/v non-fatty milk in PBST) for 2 hours at 37° C. […] After incubation at 37° C. for 40 minutes, plates were washed using wash buffer, added and incubated with 100 μl/well Peroxidase Streptavidin for 40 minutes at 37° C. Plates were washed again using wash buffer. Finally, TMB was added and the reaction was stopped using 1M H₂SO₄. The absorbance was read on a microplate reader using dual wavelength mode with 450 nm for TMB and 630 nm as the reference wavelength, and the OD (450-630) values were plotted against antibody concentrations. Data was analyzed using Graphpad Prism software and IC₅₀ values were reported.

Test [4] has as its target T3, recombinant mouse PD-1-his protein (Cat#:50124-M08H, Sino Biological Inc) (mouse, UniProt Q02242 25-167).
T3 construct: Bought protein used in Biacore and indirect ELISA; not shown: his tag
T3 sequence (looked up): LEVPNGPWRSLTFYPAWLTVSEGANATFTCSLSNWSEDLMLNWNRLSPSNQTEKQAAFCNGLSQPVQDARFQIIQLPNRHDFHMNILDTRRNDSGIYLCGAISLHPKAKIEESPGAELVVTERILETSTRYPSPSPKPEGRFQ
In words: indirect ELISA on coated mouse PD-1-his. The procedure: Briefly, 96-well micro plates were coated with 100 μl 2 μg/ml mouse PD-1-his (Cat#:50124-M08H, Sino Biological Inc) or 2 μg,/ml cynomolgus PD-1-his (Cat#:PD1-05223, Acro biosystems Inc.) in carbonate/bicarbonate buffer (pH 9.6) for 2 hours at 37° C. Plates were washed once with wash buffer (PBST, PBS+0.05% Tween-20) and then blocked with 200 μl blocking buffer (5% w/v non-fatty milk in PBST) for 2 hours at 37° C. […] ELISA plates were washed 4 times and incubated with Peroxidase AffiniPure goat anti-mouse IgG, Fcγ Fragment Specific (1:5000 dilution in PBST buffer, Cat#:115-035-071, Jackson ImmunoResearch Laboratories, Inc., 100 μl/well) or Peroxidase AffiniPure F(ab′)₂ Fragment Goat Anti-Human IgG, Fcγ fragment specific (Cat#:109-036-098, Jackson ImmunoResearch, for the controls) for 40 minutes at 37° C. After a final wash, plates were incubated with 100 μl/well TMB (Cat#:TMB-S-002, innoreagents) at room temperature. The reaction was stopped 3-10 minutes later with 50 μl/well 1M H₂SO₄, and the absorbance was read on a microplate reader using dual wavelength mode with 450 nm for TMB and 630 nm as the reference wavelength. Then the OD (450-630) values were plotted against antibody concentrations. Data was analyzed using GraphPad Prism software and EC₅₀ values were reported.

B1: mouse anti-PD-1 monoclonal antibody E1A9C8A7 (antibody, V domains shown)
VH: QVQLQQSGAEVVRPGVSVRISCKGSGYTFSDYVMHWMKQSHGESLEWIGVISTYHIPAVYNQKFKGKATMTVDKSSSTVYLELARLTSEDSAIYYCAREVYGDSYYFDVWGAGTTVTVSS
VL: DVLMTQIPLSLPVSLGDQVSISCRSSQSIVHSNGNTYLEWYLQKPGQSPKLLIYKVSNRFSGVPDRFSGSGSGTDFTLKISRVEAEDLGVYYCFQGSHVPYTFGGGTKLEIK
notes: Hybridoma-derived mouse mAb purified on Protein A; also called Mouse E1A9C8A7
Consider B1, for which the IC50 (in general, the concentration that inhibits the measured activity by half) in test [1] was found to be 0.42 nM; in test [3], 0.48 nM. Also, the midpoint of the response in test [2], the EC50, lay at 0.14 nM.

B2: mouse anti-PD-1 monoclonal antibody E1G5D1H1 (antibody, V domains shown)
VH: EVQLVESGGGLVKPGGSLKLSCAASGFTFSDFYMYWVRQTPEKRLEWVATISNSGTQTYYLDSVKGRFTISRDNAKNNLYLQMSSLKSEDTAMYYCARDYYRYDSWYFDVWGAGTTVTVSS
VL: DIVLTQSPASLAVSQGQRATISCRASESVDFYGTSLMQWFQLKPGQPPKLLIYAASNVESGVPARFSGSGSGTNFSLNIHPVEEDDIAMYFCQQSRKVPWTFGGGTNLEIK
notes: Hybridoma-derived mouse mAb; also called EIG5D1H1; E1G5DIH1
Take B2: the binding result in test [4] was “no binding (tested: 66.7 nM)”.
